In patent US20160200782A1:

Key:
Assay in all cases: cell-based or functional assay
DAPK2(h) (human) = DAPK2(h) (human) (UniProt Q9UIK4)
Syk(h) (human) = Syk(h) (human) (UniProt P43405)
Tie2(Y897S)(h) (human) = Tie2(Y897S)(h) (human) (UniProt Q02763)
GRK7(h) (human) = GRK7(h) (human) (UniProt Q8WTQ7)
MRCKα(h) (human) = MRCKα(h) (human) (UniProt Q5VT25)
PKA(h) (human) = molecular target: PKA(h) (human)
PKCζ(h) (human) = PKCζ(h) (human) (UniProt Q05513)
SGK(h) (human) = SGK(h) (human) (UniProt O00141)
BRK(h) (human) = BRK(h) (human) (UniProt Q13882)
BTK(h) (human) = BTK(h) (human) (UniProt Q06187)
MSSK1(h) (human) = MSSK1(h) (human) (UniProt Q9UPE1)
SAPK4(h) (human) = SAPK4(h) (human) (UniProt O15264)
Sequence of SAPK4(h) (human) (O15264 whole entry): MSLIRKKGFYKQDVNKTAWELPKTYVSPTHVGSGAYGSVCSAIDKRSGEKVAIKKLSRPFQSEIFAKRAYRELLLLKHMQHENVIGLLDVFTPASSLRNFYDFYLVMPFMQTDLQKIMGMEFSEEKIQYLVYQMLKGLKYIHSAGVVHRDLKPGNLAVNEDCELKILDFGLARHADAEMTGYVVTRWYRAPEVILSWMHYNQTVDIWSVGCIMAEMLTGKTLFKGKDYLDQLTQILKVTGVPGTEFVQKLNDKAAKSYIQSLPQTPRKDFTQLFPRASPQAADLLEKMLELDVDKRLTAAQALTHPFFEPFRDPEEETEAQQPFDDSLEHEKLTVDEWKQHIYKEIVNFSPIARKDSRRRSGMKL

MARK1(h) (human) = MARK1(h) (human) (UniProt Q9P0L2)
WNK3(h) (human) = WNK3(h) (human) (UniProt Q9BYP7)
CDK1/cyclinB(h) (human) = CDK1/cyclinB(h) (human) (UniProt P06493)
FGFR3(h) (human) = FGFR3(h) (human) (UniProt P22607)
JNK2α2(h) (human) = JNK2α2(h) (human) (UniProt P45984)
IR(h) (human) = IR(h) (human) (UniProt P06213)
Fes(h) (human) = Fes(h) (human) (UniProt P07332)
Haspin(h) (human) = Haspin(h) (human) (UniProt Q8TF76)
Sequence of Haspin(h) (human) (Q8TF76 471-798 limits assumed): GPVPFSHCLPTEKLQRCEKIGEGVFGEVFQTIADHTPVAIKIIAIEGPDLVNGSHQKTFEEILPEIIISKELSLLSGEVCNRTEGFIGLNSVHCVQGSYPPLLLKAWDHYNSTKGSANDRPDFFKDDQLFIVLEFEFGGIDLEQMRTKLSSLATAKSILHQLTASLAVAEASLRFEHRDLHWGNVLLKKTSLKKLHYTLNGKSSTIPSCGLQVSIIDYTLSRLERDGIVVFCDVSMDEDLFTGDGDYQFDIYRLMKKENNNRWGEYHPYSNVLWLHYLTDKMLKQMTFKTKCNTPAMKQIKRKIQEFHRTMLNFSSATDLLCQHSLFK

PDGFRα(h) (human) = PDGFRα(h) (human) (UniProt P16234)
Sequence of PDGFRα(h) (human) (P16234 550-1089 limits assumed): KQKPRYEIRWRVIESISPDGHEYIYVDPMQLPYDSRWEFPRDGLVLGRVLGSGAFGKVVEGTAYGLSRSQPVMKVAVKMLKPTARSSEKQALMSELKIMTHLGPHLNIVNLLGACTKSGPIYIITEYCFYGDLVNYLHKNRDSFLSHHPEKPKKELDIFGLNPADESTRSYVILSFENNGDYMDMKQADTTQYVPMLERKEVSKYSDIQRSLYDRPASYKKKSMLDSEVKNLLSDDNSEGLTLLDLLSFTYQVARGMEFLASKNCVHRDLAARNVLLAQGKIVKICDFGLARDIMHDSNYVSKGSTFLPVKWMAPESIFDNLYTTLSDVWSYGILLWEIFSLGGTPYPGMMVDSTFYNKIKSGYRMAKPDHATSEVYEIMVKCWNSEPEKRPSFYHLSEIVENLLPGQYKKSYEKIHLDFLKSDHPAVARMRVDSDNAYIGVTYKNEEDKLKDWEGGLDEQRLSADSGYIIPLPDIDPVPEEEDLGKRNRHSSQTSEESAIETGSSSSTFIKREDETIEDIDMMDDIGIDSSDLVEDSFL

SAPK2b(h) (human) = SAPK2b(h) (human) (UniProt Q15759)
EGFR(T790M)(h) (human) = EGFR(T790M)(h) (human) (UniProt P00533)
RIPK2(h) (human) = RIPK2(h) (human) (UniProt O43353)
Sequence of RIPK2(h) (human) (O43353 1-299 limits assumed): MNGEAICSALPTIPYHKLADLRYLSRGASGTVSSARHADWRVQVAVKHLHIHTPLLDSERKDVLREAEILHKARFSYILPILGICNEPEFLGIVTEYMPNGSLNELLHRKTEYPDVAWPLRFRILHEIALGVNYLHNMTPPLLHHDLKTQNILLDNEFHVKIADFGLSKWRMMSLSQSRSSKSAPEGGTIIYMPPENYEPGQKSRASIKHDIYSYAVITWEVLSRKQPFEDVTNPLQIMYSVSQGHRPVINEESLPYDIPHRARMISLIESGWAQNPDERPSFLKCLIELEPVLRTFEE

Flt3(D835Y)(h) (human) = Flt3(D835Y)(h) (human) (UniProt P36888)
Sequence of Flt3(D835Y)(h) (human) (P36888 564-993 D835Y limits assumed): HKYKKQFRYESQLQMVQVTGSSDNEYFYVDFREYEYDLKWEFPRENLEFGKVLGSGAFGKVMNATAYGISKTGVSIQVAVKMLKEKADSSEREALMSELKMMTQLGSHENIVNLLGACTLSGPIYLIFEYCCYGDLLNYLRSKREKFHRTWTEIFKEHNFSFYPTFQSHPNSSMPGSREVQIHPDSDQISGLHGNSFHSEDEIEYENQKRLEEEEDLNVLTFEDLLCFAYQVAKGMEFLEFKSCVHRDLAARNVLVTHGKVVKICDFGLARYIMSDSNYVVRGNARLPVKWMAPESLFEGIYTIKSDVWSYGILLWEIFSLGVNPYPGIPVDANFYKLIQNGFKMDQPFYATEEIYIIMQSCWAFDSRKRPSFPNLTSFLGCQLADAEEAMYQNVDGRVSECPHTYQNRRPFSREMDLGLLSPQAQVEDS

Ax1(h) (human) = Ax1(h) (human) (UniProt P30530)
ROCK-II(h) (human) = ROCK-II(h) (human) (UniProt O75116)
AMPKa2(h) (human) = AMPKa2(h) (human) (UniProt P54646)
PKCγ(h) (human) = PKCγ(h) (human) (UniProt P05129)
PKCβI(h) (human) = PKCβI(h) (human) (UniProt P05771)
PDGFRα(V561D)(h) (human) = PDGFRα(V561D)(h) (human) (UniProt P16234)
Sequence of PDGFRα(V561D)(h) (human) (P16234 550-1089 V561D limits assumed): as the sequence (P16234 550-1089 limits assumed) above, with V12D counted along it

Hck(h) (human) = Hck(h) (human) (UniProt P08631)
CaMKIV(h) (human) = CaMKIV(h) (human) (UniProt Q16566)
PKBα(h) (human) = PKBα(h) (human) (UniProt P31749)
cKit(D816V)(h) (human) = cKit(D816V)(h) (human) (UniProt P10721)
MLK1(h) (human) = MLK1(h) (human) (UniProt P80192)
Sequence of MLK1(h) (human) (P80192 132-413 limits assumed): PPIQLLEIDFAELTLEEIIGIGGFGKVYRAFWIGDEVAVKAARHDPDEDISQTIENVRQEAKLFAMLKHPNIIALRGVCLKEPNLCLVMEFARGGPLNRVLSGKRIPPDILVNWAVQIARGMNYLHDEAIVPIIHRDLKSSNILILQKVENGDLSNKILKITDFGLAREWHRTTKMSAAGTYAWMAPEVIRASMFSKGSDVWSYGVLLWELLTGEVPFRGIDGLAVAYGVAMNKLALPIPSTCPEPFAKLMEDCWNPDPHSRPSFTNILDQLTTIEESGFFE

DCAMKL2(h) (human) = DCAMKL2(h) (human) (UniProt Q8N568)
Rsk3(h) (human) = Rsk3(h) (human) (UniProt Q15349)
Aurora-A(h) (human) = Aurora-A(h) (human) (UniProt O14965)
[1] = molecular target: IGF-1R(h), activated (human) (UniProt P08069)
Bmx(h) (human) = Bmx(h) (human) (UniProt P51813)
Sequence of Bmx(h) (human) (P51813 whole entry): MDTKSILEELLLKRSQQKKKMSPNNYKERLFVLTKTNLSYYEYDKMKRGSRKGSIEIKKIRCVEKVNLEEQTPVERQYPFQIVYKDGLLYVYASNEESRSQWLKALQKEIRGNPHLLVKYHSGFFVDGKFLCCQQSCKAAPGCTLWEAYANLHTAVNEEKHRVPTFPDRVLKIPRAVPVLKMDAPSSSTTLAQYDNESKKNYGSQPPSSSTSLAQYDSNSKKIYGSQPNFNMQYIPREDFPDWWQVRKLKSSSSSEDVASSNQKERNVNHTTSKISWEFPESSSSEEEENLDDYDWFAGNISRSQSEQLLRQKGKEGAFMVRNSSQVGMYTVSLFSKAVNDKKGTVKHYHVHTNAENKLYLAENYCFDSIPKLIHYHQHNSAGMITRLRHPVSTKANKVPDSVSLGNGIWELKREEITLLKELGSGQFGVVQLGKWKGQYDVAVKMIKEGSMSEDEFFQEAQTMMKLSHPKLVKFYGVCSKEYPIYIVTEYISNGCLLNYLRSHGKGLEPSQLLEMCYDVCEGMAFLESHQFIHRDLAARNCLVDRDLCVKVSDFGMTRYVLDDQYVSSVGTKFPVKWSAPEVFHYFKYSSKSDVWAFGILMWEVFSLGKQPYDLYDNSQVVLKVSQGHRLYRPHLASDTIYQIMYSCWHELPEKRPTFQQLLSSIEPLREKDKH

PDK1(h) (human) = PDK1(h) (human) (UniProt O15530)
Arg(h) (human) = Arg(h) (human) (UniProt P42684)
PKCθ(h) (human) = PKCθ(h) (human) (UniProt Q04759)
CDK5/p35(h) (human) = CDK5/p35(h) (human) (UniProt Q00535)
ALK4(h) (human) = ALK4(h) (human) (UniProt P36896)
Sequence of ALK4(h) (human) (P36896 150-505 limits assumed): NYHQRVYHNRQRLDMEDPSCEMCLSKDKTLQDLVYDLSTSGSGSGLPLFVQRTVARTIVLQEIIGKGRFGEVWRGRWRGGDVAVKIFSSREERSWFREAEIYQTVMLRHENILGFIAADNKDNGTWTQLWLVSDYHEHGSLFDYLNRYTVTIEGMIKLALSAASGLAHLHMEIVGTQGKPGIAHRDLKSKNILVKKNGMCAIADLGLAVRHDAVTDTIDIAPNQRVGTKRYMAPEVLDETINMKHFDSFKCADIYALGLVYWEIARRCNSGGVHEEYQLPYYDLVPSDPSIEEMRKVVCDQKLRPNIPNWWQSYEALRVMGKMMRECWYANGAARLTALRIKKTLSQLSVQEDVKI

NEK3(h) (human) = NEK3(h) (human) (UniProt P51956)
CK2(h) (human) = molecular target: CK2(h) (human)
Met(D1246N)(h) (human) = Met(D1246N)(h) (human) (UniProt P08581)
CDK6/cyclinD3(h) (human) = CDK6/cyclinD3(h) (human) (UniProt Q00534)
CK1δ(h) (human) = CK1δ(h) (human) (UniProt P48730)
Ab1(T315I)(h) (human) = Ab1(T315I)(h) (human) (UniProt P00519)
Ron(h) (human) = Ron(h) (human) (UniProt Q04912)
EGFR(L858R)(h) (human) = EGFR(L858R)(h) (human) (UniProt P00533)
MRCKβ(h) (human) = MRCKβ(h) (human) (UniProt Q9Y5S2)
Sequence of MRCKβ(h) (human) (Q9Y5S2 1-473 limits assumed): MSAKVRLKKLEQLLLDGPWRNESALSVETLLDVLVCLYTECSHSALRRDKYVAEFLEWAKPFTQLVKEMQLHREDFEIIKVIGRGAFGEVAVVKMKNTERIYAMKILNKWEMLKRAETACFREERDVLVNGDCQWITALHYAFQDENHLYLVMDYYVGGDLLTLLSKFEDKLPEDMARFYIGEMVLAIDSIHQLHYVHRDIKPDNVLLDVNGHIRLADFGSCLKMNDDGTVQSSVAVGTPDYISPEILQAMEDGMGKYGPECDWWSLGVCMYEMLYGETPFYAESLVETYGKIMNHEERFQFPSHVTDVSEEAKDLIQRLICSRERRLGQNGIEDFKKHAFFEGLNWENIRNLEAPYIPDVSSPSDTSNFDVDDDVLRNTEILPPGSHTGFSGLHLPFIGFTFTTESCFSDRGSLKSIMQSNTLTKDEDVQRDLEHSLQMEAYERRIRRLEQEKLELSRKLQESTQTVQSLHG

BTK(R28H)(h) (human) = BTK(R28H)(h) (human) (UniProt Q06187)

Sequence of DAPK2(h) (human) (Q9UIK4 whole entry): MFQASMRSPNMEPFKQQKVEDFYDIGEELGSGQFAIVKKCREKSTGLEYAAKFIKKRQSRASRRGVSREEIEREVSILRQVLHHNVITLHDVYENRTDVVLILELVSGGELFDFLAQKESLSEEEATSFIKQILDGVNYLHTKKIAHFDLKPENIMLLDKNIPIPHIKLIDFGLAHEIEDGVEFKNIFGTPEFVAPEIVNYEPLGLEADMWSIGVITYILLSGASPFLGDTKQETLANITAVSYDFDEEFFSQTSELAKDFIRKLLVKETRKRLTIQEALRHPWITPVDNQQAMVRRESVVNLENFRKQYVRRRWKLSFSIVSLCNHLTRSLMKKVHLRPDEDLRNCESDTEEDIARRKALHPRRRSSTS
Sequence of PKCζ(h) (human) (Q05513 whole entry): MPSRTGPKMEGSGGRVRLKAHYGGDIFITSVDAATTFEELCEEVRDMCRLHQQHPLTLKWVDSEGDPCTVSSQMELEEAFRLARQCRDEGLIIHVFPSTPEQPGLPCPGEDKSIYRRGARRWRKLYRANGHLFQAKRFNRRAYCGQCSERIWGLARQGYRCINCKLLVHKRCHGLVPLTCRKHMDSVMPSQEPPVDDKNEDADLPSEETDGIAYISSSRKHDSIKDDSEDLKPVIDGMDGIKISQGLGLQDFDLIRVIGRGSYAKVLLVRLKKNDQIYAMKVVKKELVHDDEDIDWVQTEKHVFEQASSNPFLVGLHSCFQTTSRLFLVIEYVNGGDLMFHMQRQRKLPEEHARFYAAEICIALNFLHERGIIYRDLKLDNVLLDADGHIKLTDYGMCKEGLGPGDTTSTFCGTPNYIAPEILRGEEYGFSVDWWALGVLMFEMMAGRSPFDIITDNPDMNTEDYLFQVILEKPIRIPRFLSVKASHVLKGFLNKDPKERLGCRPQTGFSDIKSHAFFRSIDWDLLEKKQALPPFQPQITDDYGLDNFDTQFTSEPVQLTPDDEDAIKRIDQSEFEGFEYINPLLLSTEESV

Question: MMI-0500 (peptide) was tested. Which % activity (DAPK2(h) (human)) did it give?
Answer: 3%

Question: What about the % activity (Syk(h) (human)) of the same substance?
Answer: 5%

Question: What about the % activity (Tie2(Y897S)(h) (human)) of the same substance?
Answer: 80%

Question: And the % activity (GRK7(h) (human))?
Answer: 93%

Question: What about the % activity (MRCKα(h) (human)) of the same substance?
Answer: 5%

Question: And the % activity (PKA(h) (human))?
Answer: 118%

Question: And the % activity (PKCζ(h) (human))?
Answer: 7%

Question: And the % activity (SGK(h) (human))?
Answer: 2%

Question: And the % activity (BRK(h) (human))?
Answer: 41%

Question: And the % activity (BTK(h) (human))?
Answer: 18%

Question: And the % activity (MSSK1(h) (human))?
Answer: 22%

Question: And the % activity (SAPK4(h) (human))?
Answer: 48%

Question: What about the % activity (MARK1(h) (human)) of the same substance?
Answer: 110%

Question: What about the % activity (WNK3(h) (human)) of the same substance?
Answer: 9%

Question: What about the % activity (CDK1/cyclinB(h) (human)) of the same substance?
Answer: 57%

Question: And the % activity (FGFR3(h) (human))?
Answer: 10%

Question: And the % activity (JNK2α2(h) (human))?
Answer: 81%

Question: What about the % activity (IR(h) (human)) of the same substance?
Answer: 95%

Question: What about the % activity (Fes(h) (human)) of the same substance?
Answer: 23%

Question: What about the % activity (Haspin(h) (human)) of the same substance?
Answer: 25%

Question: And the % activity (PDGFRα(h) (human))?
Answer: 40%

Question: What about the % activity (SAPK2b(h) (human)) of the same substance?
Answer: 42%

Question: And the % activity (EGFR(T790M)(h) (human))?
Answer: 70%

Question: And the % activity (RIPK2(h) (human))?
Answer: 30%

Question: And the % activity (Flt3(D835Y)(h) (human))?
Answer: 65%

Question: And the % activity (Ax1(h) (human))?
Answer: 12%

Question: What about the % activity (ROCK-II(h) (human)) of the same substance?
Answer: 2%

Question: What about the % activity (AMPKa2(h) (human)) of the same substance?
Answer: 9%

Question: What about the % activity (PKCγ(h) (human)) of the same substance?
Answer: 6%

Question: And the % activity (PKCβI(h) (human))?
Answer: 1%

Question: And the % activity (PDGFRα(V561D)(h) (human))?
Answer: 146%

Question: What about the % activity (Hck(h) (human)) of the same substance?
Answer: 78%

Question: What about the % activity (CaMKIV(h) (human)) of the same substance?
Answer: -1%

Question: And the % activity (PKBα(h) (human))?
Answer: 30%

Question: And the % activity (cKit(D816V)(h) (human))?
Answer: 30%

Question: And the % activity (MLK1(h) (human))?
Answer: 43%

Question: What about the % activity (DCAMKL2(h) (human)) of the same substance?
Answer: 56%

Question: What about the % activity (Rsk3(h) (human)) of the same substance?
Answer: 23%

Question: What about the % activity (Aurora-A(h) (human)) of the same substance?
Answer: 110%

Question: What about the % activity [1] of the same substance?
Answer: 45%

Question: And the % activity (Bmx(h) (human))?
Answer: 45%

Question: And the % activity (PDK1(h) (human))?
Answer: 178%

Question: What about the % activity (Arg(h) (human)) of the same substance?
Answer: 22%

Question: And the % activity (PKCθ(h) (human))?
Answer: 62%

Question: What about the % activity (CDK5/p35(h) (human)) of the same substance?
Answer: 59%

Question: And the % activity (ALK4(h) (human))?
Answer: 81%

Question: And the % activity (NEK3(h) (human))?
Answer: 20%

Question: And the % activity (CK2(h) (human))?
Answer: 93%

Question: What about the % activity (Met(D1246N)(h) (human)) of the same substance?
Answer: 90%

Question: What about the % activity (CDK6/cyclinD3(h) (human)) of the same substance?
Answer: 23%

Question: And the % activity (CK1δ(h) (human))?
Answer: 78%

Question: What about the % activity (Ab1(T315I)(h) (human)) of the same substance?
Answer: 16%

Question: What about the % activity (Ron(h) (human)) of the same substance?
Answer: 46%

Question: And the % activity (EGFR(L858R)(h) (human))?
Answer: 26%

Question: And the % activity (MRCKβ(h) (human))?
Answer: -10%

Question: And the % activity (BTK(R28H)(h) (human))?
Answer: 10%
